Test results as given in patent US8486651B2, “Method for treating a disorder associated with Eya dysregulation by modulating Eya phosphatase activity” (Children's Hospital Medical Center, priority 2008, dated 2013).
Each block holds one compound with its values, some of them ahead of it.

Experiments:
[1] = tested on: T1, Six2 fragment derived from mouse Six protein (SEQ ID NO. 6)
T1 sequence: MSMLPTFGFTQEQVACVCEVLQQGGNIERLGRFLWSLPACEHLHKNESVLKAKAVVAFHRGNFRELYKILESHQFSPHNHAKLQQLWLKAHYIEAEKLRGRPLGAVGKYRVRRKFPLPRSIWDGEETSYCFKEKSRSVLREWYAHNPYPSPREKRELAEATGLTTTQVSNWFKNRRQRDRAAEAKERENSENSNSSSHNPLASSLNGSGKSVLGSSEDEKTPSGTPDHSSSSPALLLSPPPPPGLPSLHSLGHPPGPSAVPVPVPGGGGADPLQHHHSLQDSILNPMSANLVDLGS

[2] = tested on: T2, histone H2AX C-terminus peptide (KKATQASQEpY)
T2 sequence: KKATQASQEY

human SIX6 = biological target: T3, human SIX6 (UniProt O95475)
T3 sequence: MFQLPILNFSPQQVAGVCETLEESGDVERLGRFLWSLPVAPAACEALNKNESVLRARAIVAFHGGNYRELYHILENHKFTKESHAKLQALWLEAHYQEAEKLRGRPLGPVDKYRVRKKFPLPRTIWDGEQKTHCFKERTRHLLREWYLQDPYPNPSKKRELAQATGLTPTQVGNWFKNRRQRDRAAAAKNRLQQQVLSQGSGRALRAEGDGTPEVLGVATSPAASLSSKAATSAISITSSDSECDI

Eya = Eya phosphatase activity pNPP screen, plate controls; format: biochemical; settings: plate control
Procedure: Phosphatase Activity Assay. Phosphatase activity of Eya is measured using the p-nitrophenyl phosphate (pNPP) assay. In this assay, reaction mixtures of approximately 60 uL in 20 mM MES (pH 5.5), various concentrations of pNPP and cations are pre-equilibrated at 30° C. for 10 minutes. The assay is initiated by the addition of 0.3 ug of enzyme in 20 mM Tris (pH 8.0) and 150 mM NaCl. The reaction mixture is incubated for 20 minutes, and then quenched with 100 uL of 0.4 M EDTA, pH 10.0. Release of p-nitrophenol (pNP) is monitored by measuring absorbance at a wavelength of 410 (A410) and extrapolating the values into the Michaelis-Menten equation using SIGMAPLOT (SPSS Science, Chicago, Ill.). pNP release can be plotted as a function of time when various enzyme concentrations are used.
The protocol is substantially that described in references 4, 17 and 18. Eya phosphatase activity is measured using the model chromogenic substrate p-nitro-phenylphosphate (pNPP) as described. […] To ensure data quality and assay robustness, the Z value is used. The Z value is based on the difference between the signal of the positive control (ie, no test compound) and that of the negative control (no Eya protein or polypeptide). The Z value incorporates the standard deviation of each signal. A Z value of 1.0 is considered perfect, and Z values above 0.5 are generally considered ideal for HTS. […] In both the primary and secondary screen, every plate also contains three additional controls: 20 mM Na-o-vanadate (which inhibits Eya), 20 mM EDTA (which inhibits 100% of Eya activity) and 50 mM NaF (which inhibits Eya).

Compound: Full-length murine Eya3
kcat of Eya3 (dephosphorylation of the H2AX-pY peptide, malachite-green type phosphate release), with stoichiometric SIX2 [1]: The interaction with these SIX proteins increases the kcat of Eya3, while the Km values remain relatively similar.
catalytic rate of dephosphorylation of the tyrosine-phosphorylated H2AX peptide [2]: The ability of Eya3 to dephosphorylate a tyrosine-phosphorylated peptide derived from H2AX was monitored in the presence or absence of stoichiometric amounts of either SIX2 or SIX6. The catalytic rate at increasing concentrations of H2AX-pY peptide was measured.
kcat of Eya3 (dephosphorylation of the H2AX-pY peptide, malachite-green type phosphate release), with stoichiometric SIX6 (human SIX6): The interaction with these SIX proteins increases the kcat of Eya3, while the Km values remain relatively similar.

Compound: [Na+].[Na+].[Na+].[O]=[V]([O-])([O-])[O-] [Na-o-vanadate]
inhibition of Eya (Eya; 20 mM Na-o-vanadate): inhibits Eya

inhibition of Eya activity (Eya; 20 mM EDTA): 100%
Compound: O=C(O)CN(CCN(CC(=O)O)CC(=O)O)CC(=O)O [EDTA]

Compound: [F-].[Na+] [NaF]
inhibition of Eya (Eya; 50 mM NaF): inhibits Eya
